In the assay the target is T1, REV1 C-terminal domain (CTD) (mouse, UniProt Q920Q2 1150-1249).
T1 sequence (looked up): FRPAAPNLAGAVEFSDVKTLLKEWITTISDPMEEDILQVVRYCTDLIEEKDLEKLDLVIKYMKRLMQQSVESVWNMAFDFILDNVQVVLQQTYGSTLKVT
In words: crystal structure.

With KSFFDKKRSERISN (domain or fragment, mouse, UniProt Q9QUG2 564-577, looked up) [POL κ RIR (REV1-interacting region) peptide], the binding result is listed as “binds”.

For the origin of these results see article PMC6644000 (Cell, 2019).
